Biological target: VAPB-MSP domain, MSP(1–125) (human) (UniProt O95292)
Experiment: NMR titration; 1H-15N HSQC of 15N-labelled VAPB protein (50 uM) with unlabelled NS5B or Eph protein added at different molar ratios (increment 0.5 for C-linker and Eph); 10 mM phosphate buffer pH 6.8, 25 C, 800 MHz; CSD tracings fitted with a one binding site model for residue-specific Kd

Chain of UniProt O95292 (O95292 1-125): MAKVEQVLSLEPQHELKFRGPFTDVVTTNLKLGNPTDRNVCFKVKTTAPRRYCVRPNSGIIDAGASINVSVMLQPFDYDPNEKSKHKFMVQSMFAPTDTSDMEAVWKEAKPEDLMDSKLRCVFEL

## NS5B C-linker peptide (531–570)
  Kd: 8.8 µM
  residue-specific Kd (MSP residue 53C): 1.4 µM
  residue-specific Kd (MSP residue 79D): 13.6 µM
  residue-specific Kd (MSP residue 82E): 12.8 µM
  residue-specific Kd (MSP residue 90V): 9 µM
  residue-specific Kd (MSP residue 116D): 5.7 µM
  residue-specific Kd (MSP residue 118K): 2.9 µM
  residue-specific Kd (MSP residue 119L): 16 µM

Reference: PMC4718513
